According to ChEMBL document CHEMBL3085760, “Novel polyamine analogues: from substrates towards potential inhibitors of monoamine oxidases” (Eur J Med Chem, 2013):

Key:
[1] = substrate: NCCCCCCCCCCCCNCc1ccccc1; test: (§1) Activity at recombinant human MAO-A expressed in baculovirus infected BT1 cells assessed as hydrogen peroxide generation rate preincubated for 30 mins by Amplex Red assay
[2] = substrate: NCCCCCCCCCCCCNCc1cccs1; test: as §1
[3] = substrate: CN(CCCCCCCCCCCCN)Cc1ccccc1; test: as §1
[4] = substrate: NCCCCCCCCCCCCNCc1ccccc1; test: (§2) Activity at recombinant human VAP-1 assessed as hydrogen peroxide generation rate preincubated for 30 mins by Amplex Red assay
[5] = substrate: NCCCOCCCCOCCCNCc1cccs1; test: as §2
[6] = substrate: NCCCCCCCCCCCCNCc1cccs1; test: as §2
[7] = substrate: CN(CCCCCCCCCCCCN)Cc1ccccc1; test: as §2
[8] = substrate: NCCCCCCCCNCCCNCc1cccs1; test: as §2
[9] = substrate: NCCCCCCCCCCCCNCc1ccccc1; test: (§3) Activity at recombinant human MAO-B expressed in baculovirus infected BT1 cells assessed as hydrogen peroxide generation rate preincubated for 30 mins by Amplex Red assay
[10] = substrate: NCCCOCCCCOCCCNCc1cccs1; test: as §3
[11] = substrate: NCCCCCCCCCCCCNCc1cccs1; test: as §3
[12] = substrate: CN(CCCCCCCCCCCCN)Cc1ccccc1; test: as §3

B1: Amine oxidase [flavin-containing] A (Homo sapiens) (protein)
chain: MENQEKASIAGHMFDVVVIGGGISGLSAAKLLTEYGVSVLVLEARDRVGGRTYTIRNEHVDYVDVGGAYVGPTQNRILRLSKELGIETYKVNVSERLVQYVKGKTYPFRGAFPPVWNPIAYLDYNNLWRTIDNMGKEIPTDAPWEAQHADKWDKMTMKELIDKICWTKTARRFAYLFVNINVTSEPHEVSALWFLWYVKQCGGTTRIFSVTNGGQERKFVGGSGQVSERIMDLLGDQVKLNHPVTHVDQSSDNIIIETLNHEHYECKYVINAIPPTLTAKIHFRPELPAERNQLIQRLPMGAVIKCMMYYKEAFWKKKDYCGCMIIEDEDAPISITLDDTKPDGSLPAIMGFILARKADRLAKLHKEIRKKKICELYAKVLGSQEALHPVHYEEKNWCEEQYSGGCYTAYFPPGIMTQYGRVIRQPVGRIFFAGTETATKWSGYMEGAVEAGERAAREVLNGLGKVTEKDIWVQEPESKDVPAVEITHTFWERNLPSVSGLLKIIGFSTSVTALGFVLYKYKLLPRS
Km [1]: 43 µM | Km [2]: 80 µM | Km [3]: 44 µM

B2: Amine oxidase [copper-containing] 3 (Homo sapiens), Q16853 (protein)
chain: MNQKTILVLLILAVITIFALVCVLLVGRGGDGGEPSQLPHCPSVSPSAQPWTHPGQSQLFADLSREELTAVMRFLTQRLGPGLVDAAQARPSDNCVFSVELQLPPKAAALAHLDRGSPPPAREALAIVFFGRQPQPNVSELVVGPLPHPSYMRDVTVERHGGPLPYHRRPVLFQEYLDIDQMIFNRELPQASGLLHHCCFYKHRGRNLVTMTTAPRGLQSGDRATWFGLYYNISGAGFFLHHVGLELLVNHKALDPARWTIQKVFYQGRYYDSLAQLEAQFEAGLVNVVLIPDNGTGGSWSLKSPVPPGPAPPLQFYPQGPRFSVQGSRVASSLWTFSFGLGAFSGPRIFDVRFQGERLVYEISLQEALAIYGGNSPAAMTTRYVDGGFGMGKYTTPLTRGVDCPYLATYVDWHFLLESQAPKTIRDAFCVFEQNQGLPLRRHHSDLYSHYFGGLAETVLVVRSMSTLLNYDYVWDTVFHPSGAIEIRFYATGYISSAFLFGATGKYGNQVSEHTLGTVHTHSAHFKVDLDVAGLENWVWAEDMVFVPMAVPWSPEHQLQRLQVTRKLLEMEEQAAFLVGSATPRYLYLASNHSNKWGHPRGYRIQMLSFAGEPLPQNSSMARGFSWERYQLAVTQRKEEEPSSSSVFNQNDPWAPTVDFSDFINNETIAGKDLVAWVTAGFLHIPHAEDIPNTVTVGNGVGFFLRPYNFFDEDPSFYSADSIYFRGDQDAGACEVNPLACLPQAAACAPDLPAFSHGGFSHN
Km [4]: 5 µM | Km [5]: 350 µM | Km [6]: 11 µM | Km [7]: 9 µM | Km [8]: 1730 µM

B3: Amine oxidase [flavin-containing] B (Homo sapiens) (protein)
chain: MSNKCDVVVVGGGISGMAAAKLLHDSGLNVVVLEARDRVGGRTYTLRNQKVKYVDLGGSYVGPTQNRILRLAKELGLETYKVNEVERLIHHVKGKSYPFRGPFPPVWNPITYLDHNNFWRTMDDMGREIPSDAPWKAPLAEEWDNMTMKELLDKLCWTESAKQLATLFVNLCVTAETHEVSALWFLWYVKQCGGTTRIISTTNGGQERKFVGGSGQVSERIMDLLGDRVKLERPVIYIDQTRENVLVETLNHEMYEAKYVISAIPPTLGMKIHFNPPLPMMRNQMITRVPLGSVIKCIVYYKEPFWRKKDYCGTMIIDGEEAPVAYTLDDTKPEGNYAAIMGFILAHKARKLARLTKEERLKKLCELYAKVLGSLEALEPVHYEEKNWCEEQYSGGCYTTYFPPGILTQYGRVLRQPVDRIYFAGTETATHWSGYMEGAVEAGERAAREILHAMGKIPEDEIWQSEPESVDVPAQPITTTFLERHLPSVPGLLRLIGLTTIFSATALGFLAHKRGLLVRV
Km [9]: 50 µM | Km [10]: 401 µM | Km [11]: 18 µM | Km [12]: 12 µM
